The data set can be described thus: soluble on expression in E. coli; label from the status in PepcDB or PDB records.
Regarding “MAVGAPFLYRYSLYNCAYVILNGKVLGIVPKSYIPNYSEFYEKRWFTEGFNIKGLNVDLDFQKEVPFGTDLIFSFKNLKVGFEICEDLWVTIPPSSNLALMGANLICNLSASNELVSKSSYRKSLVQNQSARTMCSYIYSSAGVHESTTDLLFSGHMIIAENGTIIKENNRFKRENDLLTGIVDLFKLDAERIKNISFRNSTFNENNEPRFIPFNLENTEIKNFDREIDKHPFLPKSQYAMEARCEEILNIQAAALAKRLEHTNLKKAVIGISGGLDSTLALLVVVKTFDMLNIPRENIITITMPGFGTTDRTYNNAVTLCKELHCDFREINIVNAALQHFEDIGHDKDIHDVTYENVQARERTQILMDLANKEGGLLIGTGDLSELALGWCTYNGDHMSMYSVNCSIPKTLVRFLVNYFANHEISNDAKEALLDILDTPVSPELLPKDKEGKIAQKTEDIVGPYELHDFFLYHFIKHGSSPERILFLAKEAFKNDYDEETLKKWLDKFIRRFFTQQFKRSALPDGPKVGSISLSPRGDWRMPSDAVYNDFLILEHHHHHH”, the “soluble on expression in E. coli” value is “not soluble”. In the case of “MAVGSVATLATEPGEDAFRKLFRFYRQSRPGTADLEGVIDFSAAHAARGKGPGAQKVIKSQLNVSSVSEQNAYRAGLQPVSKWQAYGLKGYPGFIFIPNPFLPGYQWHWVKQCLKLYSQKPNVCNLDKHMSKEETQDLWEQSKEFLRYKEATKRRPRSLLEKLRWVTVGYHYNWDSKKYSADHYTPFPSDLGFLSEQVAAACGFEDFRAEAGILNYYRLDSTLGIHVDRSELDHSKPLLSFSFGQSAIFLLGGLQRDEAPTAMFMHSGDIMIMSGFSRLLNHAVPRVLPNPEGEGLPHCLEAPLPAVLPRDSMVEPCSMEDWQVCASYLKTARVNMTVRQVLATDQNFPLEPIEDEKRDISTEGFCHLDDQNSEVKRARINPHSLEHHHHHH” it was “soluble”; in that of “MAVIVKYVVERNGEEKMTFTSKAEADAYDKMLDMADELFELLGKSALIEDEAKQEELAMFLAQNKEDVLCALGAKRKPAPATGKKPKAVADSDDDESVDDAA”, “not soluble”. Turning to “MAVKHASAPKAYINITGLGFAKLTKEGAELKYSDITKTRGLQKIGVETGGELKTAYADGGPIESGNTDGEGKISLQMHAFPKEIRKIVFNEDYDEDGVYEEKQGKQNNYVAVWFRQERRDGTFRTVLLPKVMFTNPKIDGETAEKDWDFSSEEVEGEALFPLVDNKKSVRKYIFDSANMTNHGGDGEKGEEAFLKKILGEEYTGNVTEDNEETLLEHHHHHH”, the “soluble on expression in E. coli” value is “soluble”.

On to “MAVLGLQGVRGGVGTTTITAALAWSLQMLGENVLVVDACPDNLLRLSFNVDFTHRQGWARAMLDGQDWRDAGLRYTSQLDLLPFGQLSIEEQENPQHWQTRLSDICSGLQQLKASGRYQWILIDLPRDASQITHQLLSLCEHSLAIVNVDANCHIRLHQQALPDGAHILINDFRIGSQVQDDIYQLWLQSQRRLLPMLIHRDEAMAECLAAKQPVGEYRSDALAAEEILTLANWCLLNYSGLKTPVGSAS”, for which the “soluble on expression in E. coli” value was “not soluble”. As to “MAVPEGNSWTYTAASASITAPAQLVGNVGELQGAGSAVIWNVDVPVTGEYRINLTWSSPYSSKVNTLVMDGTALSYAFAEATVPVTYVQTKTLSAGNHSFGVRVGSSDWGYMNVHSLKLELLGGLTIRSPANLEHHHHHH”, the “soluble on expression in E. coli” value is reported as “soluble”. In the case of “MAVPPAYSDLGKSAKDIFSKGYGFGIVKLDLKTKSQNGVEFNTSGSTNTDTGKAAGSLETKYKLKDLGLSFNQKWNTDNMLTTEVSVEDQLAEGLKVALDTSFVPNTGKKSGKLKTSYKREFVNVSCDLDFEGPVVHSAAVLGYEGWLLGYLVAFDTAKSKLVQNNFALGYKTGDFQLHTNVNDGAEFGGSVYQKVSDQLETAVTLAWTAGSNNTRFGVAAKYQLDKDASLSAKVNNASLIGIGYTQSLRPGVKLTLSALVDGKNFNTGGHKVGLGFELEA” it was “not soluble”; in that of “MAVPSGVHRCFFRGQSVSLEKLLSIFASEVCEQVVFIGENHEHSVAQQLELRILEALWLSSQRQNRQLLLSLEFLDRSQQHVLNEAMLRDEIESVVPEPYVPLVRFARTNNLAVLAANAPRSITSRVAKQGQQAVMETLSPKERAWCAPTPWPAPSNAYSEAFQAIMQQVMRPDPSSAQAQQERMQRMLQAQSLWDATMAFSIAEALERYPKAQVLHVTGFFHVANRLGTVEMLAHYRNTVNALVSIVYPEELQHSTSALDGDVVIYAP”, “not soluble”. Consider “MAVRPVLAVGSYLPHAPWPWGVIDQAARVLLPASTTVRAAVSLPNASAQLVRASGVLPADGTRRAVLYLHGGAFLTCGANSHGRLVELLSKFADSPVLVVDYRLIPKHSIGMALDDCHDGYRWLRLLGYEPEQIVLAGDSAGGYLALALAQRLQEVGEEPAALVAISPLLQLAKEHKQAHPNIKTDAMFPARAFDALDALVASAAARNQVDGEPEELYEPLEHITPGLPRTLIHVSGSEVLLHDAQLAAAKLAAAGVPAEVRVWPGQVHDFQVAASMLPEAIRSLRQIGEYIREATG”, for which the “soluble on expression in E. coli” value is on record as “soluble”. On to “MAVSLFKQLQIVWDYHLVNQEIRKSDAIFVLCSYDLRVAEHAAQLYLDGYAPLLIFSGAQGRATEGLFTLSEAETFANVAKDMGVPSSAIIVETKATNTGENIFFTQALLKERNISVSSLILVQKPYMERRLLATFLKNWNDIEFCISSPNISFINYPTDEITFDHIASIILGELHRLKVYPTLGYQEAQEIPDEVWQAFENLTQLGFDEYLLTNDNLEHHHHHH”, for which the “soluble on expression in E. coli” value is reported as “not soluble”. For “MAVVKVIRKLKAKRVVIKVGTSTLVYPDGSINLRAIDQLAFVISAMRHRGREVVLVSSGAIGVGLNYMGLKQRPKAIPEQQAIAAIGQTELISIYKERFAIYEQKIGQLLLTRDIFVYPKSHHNVLNTFEALLKQNVVPIVNENDTVAVDELDHETKFGDNDQLSAIVATNIGADLLIMLSDIDGFYDGNPNADARAQLLGHIEKVDQHTYKLAGGSGSRFGTGGMVTKLKAAERMIDANGQMILANGADPTIIFQILAGEPVGTLFGLEHHHHHH”, the “soluble on expression in E. coli” value is recorded as “not soluble”. In the case of “MAYCNPGLESRPNKRNALRRHVVTGIGMKIVIAPDSYKESLSASEVAQAIEKGFREIFPDAQYVSIPVADGGEGTVEAMIAATQGSERHAWVTGPLGEKVNASWGISGDGKTAFIEMAAASGLELVPAEKRDPLVTTSRGTGELILQALESGATNIIIGIGGSATNDGGAGMVQALGAKLCDANGNEIGFGGGSLNTLNDIDISGLDPRLKDCVIRVACDVTNPLVGDNGASRIFGPQKGASEAMIVELDNNLSHYADVIKKALHVDVKDVPGAGAAGGMGAALMAFLGAELKSGIEIVTTALNLEEHIHDCTLVITGEGRIDSQSIHGKVPIGVANVAKKYHKPVIGIAGSLTDDVGVVHQHGIDAVFSVLTSIGTLDEAFRGAYDNICRASRNIAATLAIGMRNTG” it was “not soluble”; in that of “MAYITYQQYLDLYGTCPISEEEFPVYAGLASDMIDSITRYRIVEGGGISALPSILQTLVQKAAAAQVLYFTQIGLETVLTGQAGQSFTVGKVSVSGGALSSTTTKPGALMVSPFALSLLEQTPLMERGVHVCSDRFLNPFWGILEHHHHHH”, “soluble”. In the case of “MAYKSLLTVATSPERVEPAITVASRLALSSDAHLDVLALGIDGTQVAYYNMGGTAVVLQMALERAEQEAQAVEKAAAAALSAQPAMLRASVESAVAQMGGLAGLVALRSRFADLVVLSRPYGKGRGAETEAVVEAALFEGQAPVLVVPDDPALSERFGHRIVIAWDQSREALTAVRKAMPFLLRADNVDIVIVDPAAHGAERSDPGGALCQMLVRHGVRAEVSVLAKTMPRISDVIARHVRDQDADLLVMGAYGHSRFREAILGGATRDMLELAEVPVLMAH” it was “not soluble”; in that of “MAYLEQLQAGLRYLGRAGESGRKSLDKVVAPVNGAISEIRGAAAELENLPGVSPEMAARLQRAMRGIGQAQGKVNRVVSTYDRASRALLGIDERLDALKVQVNSAAQAVGKVAGDISPTLAGVLPSWLLAPSATPPSEAAASLPHLLVLQPLTANAQPFYFNLNTAAFDALQRNSAYNWSGQVRLGRRPALQSVGMGEESILLKGAVFPLRRQVGNQEKVVGLEQLEALRRLAERREPLILSSGYGEVQMGLWCLVRISENQSALLGNGAPRKQTFDLEFKRYGDDLPNR”, “not soluble”; in that of “MAYQSKNTDEHVTFADALLSKRYRKAQNDFLNQVERLIDWRPIRTLINKKYTKRQNAIGAPAYDVILLFKMLLLETWYNLSDCALEERINDSITFSRFLGLKMEEVSPDHSTISRFRSALTELGLMDKLLAQFNKQLSRHHISVREGVLVDASLVETPHKPNGTITIEVADDREDNRSEAEKEAEEDYQKQVVRRRKGTDEEARWVYKQKRYHYGYKKHCLTNVQGIVQKVITTAANRSDTKEFIPLLQGANIPQGTAVLADKGYACGENRSYLQTHHLQDGIMHKAQRNRALTEEEKQGNKAISPIRSTIERTFGSIRRWFHGGRCRYRGLAKTHTQNILESIAFNLYRTPGIIMSSSLG”, “not soluble”.

For “MAYRDQPLGELALSIPRASALFRQYDMDYCCGGKQTLARAAARHDVDIDIIEAQLAQLAEQPIEKDWRAVPLADIIDHIVVRYHDRHREQLPELILQATKVERVHADKPNVPRGLTKYLTALHEELSSHMMKEEQILFPMIKQGMGRQATGPISVMESEHDEAGELVDVIKHVTKNVTPPPEACTTWKAMYNGINEMIDDLMEHISLENNVLFPRALAGE”, the “soluble on expression in E. coli” value is listed as “not soluble”. For “MAYRERAAWAPEGYMLPLPGACLPSLPENLPGAPRPYRKGVSAGFVFRQGDACVPVVRGMGVVAAFGGEVVKVDPDFQELSEEAWQALLERVREGASPEEMDILRGLEVHVRHPDGRTTVYAHLQAPYPGLKVGSRVHRGDPIGYVGNTGLRGGASRLLFEVWEGEPDRSAFLFQGLEGEELLRRARAFFGLP”, the “soluble on expression in E. coli” value is “soluble”. For “MAYRICLIEGDGIGHEVIPAARRVLEATGLPLEFVEAEAGWETFERRGTSVPEETVEKILSCHATLFGAATSPTRKVPGFFGAIRYLRRRLDLYANVRPAKSRPVPGSRPGVDLVIVRENTEGLYVEQERRYLDVAIADAVISKKASERIGRAALRIAEGRPRKTLHIAHKANVLPLTQGLFLDTVKEVAKDFPLVNVQDIIVDNCAMQLVMRPERFDVIVTTNLLGDILSDLAAGLVGGLGLAPSGNIGDTTAVFEPVHGSAPDIAGKGIANPTAAILSAAMMLDYLGEKEAAKRVEKAVDLVLERGPRTPDLGGDATTEAFTEAVVEALKSL”, the “soluble on expression in E. coli” value is recorded as “soluble”. In the case of “MAYRNIKIVKGNGGFGGPLIIAPTDEKHKFIYITGGGEKPEIVDKIVELTGMEAVNGFKTSIPDEEIALAIVDCGGTLRCGIYPKKGIPTINIVATGKSGPLAQYITEDIYVSAVGMEQITSIEESAGSIETKEAKAETAQSQTGTGTYDTSKKITEQRAQQSVIARIGMGAGKVVAVFNQAARDAIQ”, the “soluble on expression in E. coli” value is given as “not soluble”. As for “MCELDILHDSLYQFCPELHLKRLNSLTLACHALLDCKTLTLTELGRNLPTKARTKHNIKRIDRLLGNRHLHKERLAVYRWHASFICSGNTMPIVLVDWSDIREQKRLMVLRASVALHGRSVTLYEKAFPLSEQFQRKLMTNFLEHHHHHH”, the “soluble on expression in E. coli” value was “not soluble”. As to “MCESKIDRNRIWIVGTNATYPPFEYVDAQGEVVGFDIDLAKAISEKLGKQLEVREFAFDALILNLKKHRIDAILAGMSITPSRQKEIALLPYYGDEVQELMVVSKRSLETPVLPLTQHSSVAVQTGTFQEHYLLSQPGICVRSFDSTLEVIMEVRYGKSPVAVLEPSVGRVVLKDFPNLVATRLELPPECWVLGCGLGVAKDRPEEIQTIQQAITDLKSEGVIQSLTKKWQLSEVAYELEHHHHHH”, the “soluble on expression in E. coli” value is “soluble”.

These data come from the DeepSol protein solubility set.
